Data: article PMC6408466, “Inner lumen proteins stabilize doublet microtubules in cilia and flagella” (Nature Communications, 2019)

Molecular target: T1, FAP45 (flagellar-associated protein 45) (Chlamydomonas (endogenous in wild type …, UniProt A8I9E8 1-501))
T1 construct: FAP45 of Chlamydomonas, a coiled-coil protein of 501 amino acids, predicted ~59 kDa; endogenous protein in the axoneme; also called FAP45/CCDC19; MIP3c; source: endogenous, isolated wild type Chlamydomonas axonemes
T1 sequence (looked up): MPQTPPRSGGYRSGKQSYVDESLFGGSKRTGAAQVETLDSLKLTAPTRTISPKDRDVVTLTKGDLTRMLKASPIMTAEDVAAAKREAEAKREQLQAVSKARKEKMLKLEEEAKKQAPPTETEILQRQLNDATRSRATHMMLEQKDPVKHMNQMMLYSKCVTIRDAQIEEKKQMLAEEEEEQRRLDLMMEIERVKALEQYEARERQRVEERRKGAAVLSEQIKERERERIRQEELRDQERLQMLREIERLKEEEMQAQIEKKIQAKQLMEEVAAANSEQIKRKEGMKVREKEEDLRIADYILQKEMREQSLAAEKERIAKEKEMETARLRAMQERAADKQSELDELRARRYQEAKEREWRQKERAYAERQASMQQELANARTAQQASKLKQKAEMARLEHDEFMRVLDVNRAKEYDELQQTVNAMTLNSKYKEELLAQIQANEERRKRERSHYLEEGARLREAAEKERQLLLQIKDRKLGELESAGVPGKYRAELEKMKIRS
Test: cross-linking; EDC-crosslinked wild type axonemes solubilized, crosslinked products immunoprecipitated with anti-FAP45 antibody, LC tandem MS of the precipitates
Details: partners not purified

B1: FAP52 (flagellar-associated protein 52) (natural protein, UniProt A8ILK1 1-615, looked up)
chain: MAEPLVLNSVIGFGGAIENGLIAHPDGRTIIYPLGSTIVLRDRADPRSQEFLQGHSDKVSCLALSRSGRYLASGQITYMGFTADIIIWDLESKQLIHRMALHKVKVQALDFSCDERFLASLGGQDDNALVLWDVASGNAICGSPCNTNFTNCVKFFNNSPDKLITAGNFNMNVWTYDAGNNKLRPTDATLGTLKRVFKSVVVDANDEYAYCGTTTGDVLQIALERVLFKNTGPAKGNVQMGVTATCEVPTGDILVGGGDGSLQLLRKMPALAGTKVEGAITSIALADMNARGFTFFVGTAMCNIYKPATSRLKEELVQTAHNDKINGMAFPNEYSEVFATCGTGFIRLWHLTTCRELLRIAVPNLECFCIAFTTDGSAILSGWSDGKIRAFGPQSGKIIFTINDAHQKAVTAIASTADSSRILSGGEEGMVRVWRIGRTSQTLEASMKDHKGPVNCIRIKGSGDECVSASSDGSCILWDLHTFKRRTSLFANTFFKSVVYHPDESQLVTAGTDRKVTYWDAYDGNAIRIIDGSDLDEVNALAVDRDGEALVSGGGDKLVKLWGYDEGHCYFVGVAHSGAITAVGVTPDKQRIVSVGTEGGIFIWDYQRPQTLADI
notes: FAP52 of Chlamydomonas, ortholog of human WDR16, ~66 kDa, WD40 repeat protein; endogenous protein in the axoneme; also called FAP52/WDR16; MIP3a; source: endogenous, isolated wild type Chlamydomonas axonemes
stoichiometry N: 1
